Data: patent US20080166345A1, “MEDICAMENTS COMPRISING GENE RECOMBINANT ANTIBODY AGAINST GANGLIOSIDE GD3” (KYOWA HAKKO KOGYO CO., LTD., priority 2001, published 2008)

Columns and labels:
[1] = Reactivity of purified antibodies with various gangliosides (ELISA); assay type: binding; settings: antibody 10 μg/ml, 20 pmol/well; FIG. 22
Procedure: (§1) Each ganglioside (2 nmol) was dissolved in […] of ethanol solution containing 10 μg of dipalmitoylphosphatidylcholine (manufactured by SIGMA) and 5 μg of cholesterol (manufactured by SIGMA). In each well of a 96 well plate for ELISA (manufactured by Greiner), 20 μl of the solution (becomes 20 pmol/well) or 20 μl of the solution diluted with ethanol was respectively dispensed, followed by air-drying, and then PBS containing 1% BSA (hereinafter referred to as “1% BSA-PBS”) was added in 100 μl/well and allowed to react at room temperature for 1 hour to thereby block remaining active groups. After discarding 1% BSA-PBS, culture supernatants of transformants or diluted solutions of humanized antibodies were added in 50 μl/well and allowed to react at room temperature for 1 hour. […] After the reaction and subsequent washing with Tween-PBS, an ABTS substrate solution (a solution prepared by dissolving 0.55 g of 2,2′-azinobis(3-ethylbenzothiazoline-6-sulfonic acid) in 1 L of 0.1 M citrate buffer (pH 4.2) and adding 1 μl/ml hydrogen peroxide just before the use) was added in 50 μl/well for color development and the absorbance at 415 nm (hereinafter referred to as “OD415”) was measured.
(§2) Reactivity of purified anti-GD3 CDR-grafted antibodies KM8869, KM8870 and KM8871 with GD3 (manufactured by DIA-IATRON) was measured by the ELISA shown in the item 2 of Reference Example. […]

[2] = as above; assay type: binding; settings: antibody 10 μg/ml, 20 pmol/well; FIG. 22; remark: listed apart in the source
Procedure: as §1, §2

[3] = tested on: human melanoma culture cell line SK-MEL-28; test: In vitro cytotoxic activity (CDC activity), 51Cr release; assay type: cell-based; settings: antibody 0.05 to 50 μg/ml, human complement; FIG. 24
Procedure: (§3) Each of human melanoma culture cell lines, G-361 (ATCC CRL 1424) and SK-MEL-28 (ATCC HTB72), was cultured in RPMI1640-FBS(10) medium and adjusted to 5×10^6 cells, and the cells were isotope-labeled by adding 3.7 MBq equivalent of a radioactive substance Na2^51CrO4 and carrying out the reaction at 37° C. for 1 hour. After the reaction, the cells were washed three times by their suspension in RPMI1640-FBS(10) medium and centrifugation, re-suspended in the medium and then incubated in ice at 4° C. for 30 minutes to thereby spontaneously release the radioactive substance. […]
(§4) To each well of a 96 well U bottom plate (manufactured by Falcon), 50 μl of the target cell suspension prepared in “a.” was added (5×10^4 cells/well), and then the anti-GD3 chimeric antibody KM871 or the anti-GD3 CDR-grafted antibody, KM8869, KM8870 or KM8871, was added to give a final concentration of 0.05 to 50 μg/ml and allowed to react at room temperature for 30 minutes. […] After centrifugation, the amount of ^51Cr released in the supernatant was measured by a γ-counter. The amount of the spontaneously dissociated ^51Cr was calculated by carrying out the same procedure using the medium alone instead of the antibody solution and complement solution and measuring the amount of ^51Cr in the supernatant. […] The CDC activity was calculated by the following equation.

[4] = tested on: human melanoma culture cell line G-361; test: as above; assay type: cell-based; settings: antibody 0.05 to 50 μg/ml, human complement; FIG. 24
Procedure: as §3, §4

[5] = tested on: human melanoma culture cell line SK-MEL-28; test: Reactivity with human cancer cell (immunofluorescent method); assay type: binding; settings: antibody 5 μg/ml; FIG. 23
Procedure: (§5) Reactivity of purified anti-GD3 CDR-grafted antibodies KM8869, KM8870 and KM8871 with human cancer cells was measured as follows. That is, 1×10^6 cells of each of human melanoma culture cell lines G-361 (ATCC CRL 1424) and SK-MEL-28 (ATCC HTB72) were suspended in PBS, put into microtubes and centrifuged (2,000 rpm for 2 minutes), and the thus washed cells were stirred after adding 50 μl of the anti-GD3 chimeric antibody KM871 or the anti-GD3 CDR-grafted antibody, KM8869, KM8870 or KM8871 (a solution adjusted to 5 μg/ml with 1% BSA-PBS) and then allowed to react at 4° C. for 1 hour. After the reaction, followed by centrifugation three times with PBS for washing, 20 μl of rabbit anti-human IgG (H+L) F(ab′)2 solution (manufactured by Wako Pure chemical Industries, used by diluting 30 folds with 1% BSA-PBS) fluorescence-labeled with fluorescein isothiocyanate (hereinafter referred to as “FITC”) was added thereto, followed by stirring, and then the reaction was carried out at 4° C. for 1 hour. After the reaction, followed by centrifugation three times with PBS for washing, the cells were again suspended in PBS to carry out the analysis using a flow cytometer EPICS Elite (manufactured by COULTER). As a control, the analysis was carried out by the same procedure without adding antibodies.

[6] = tested on: human melanoma culture cell line G-361; test: as above; assay type: binding; settings: antibody 5 μg/ml; FIG. 23
Procedure: as §5

[7] = human serum as complement source; cited from earlier work

B1: KM871: anti-GD3 human chimeric antibody; VH SEQ ID NO:49, VL SEQ ID NO:50, human IgG1 and κ C regions (antibody, listed as Mus musculus, V domains shown)
VH: EVTLVESGGDFVKPGGSLKVSCAASGFAFSHYAMSWVRQTPAKRLEWVAYISSGGSGTYYSDSVKGRFTISRDNAKNTLYLQMRSLRSEDSAMYFCTRVKLGTYYFDSWGQGTTLTVSS
VL: DIQMTQTASSLPASLGDRVTISCSASQDISNYLNWYQQKPDGTVKLLIFYSSNLHSGVPSRFSGGGSGTDYSLTISNLEPEDIATYFCHQYSKLPWTFGGGTKLEIKR
modifications: human IgG1 and kappa constant regions
- binding to ganglioside [1]: weakly
- binding to ganglioside [2]: did not bind
- CDC activity [3]: show the CDC activity
- CDC activity [4]: remarkably strong cytotoxic activity
- reactivity with cells [5]: showed the reactivity
- reactivity with cells [6]: showed the reactivity
- CDC activity in comparison with the original mouse-derived antibody [7]: increased
